Target: endogenous peptides
Assay: acid eluate of purified heterodimer, Edman pool sequencing

B1: soluble rat FcRn heterodimer (receptor, part only; not given: light chain, UniProt P13599 23-291, looked up, part only)
MHC heavy: AEPRLPLMYHLAAVSDLSTGLPSFWATGWLGAQQYLTYNNLRQEADPCGAWIWENQVSWYWEKETTDLKSKEQLFLEAIRTLENQINGTFTLQGLLGCELAPDNSSLPTAVFALNGEEFMRFNPRTGNWSGEWPETDIVGNLWMKQPEAARKESEFLLTSCPERLLGHLERGRQNLEWKEPPSMRLKARPGNSGSSVLTCAAFSFYPPELKFRFLRNGLASGSGNCSTGPNGDGSFHAWSLLEVKRGDEHHYQCQVEHEGLAQPLTVDL
Q: With B1 as the binder, how does the pmole of amino acids recovered from acid elution, cycle 1 read?
A: 5.9 pmol

Q: And the pmole of amino acids recovered from acid elution, cycle 2?
A: 4.7 pmol

Q: And the pmole of amino acids recovered from acid elution, cycle 3?
A: 0.7 pmol

Q: And the pmole of amino acids recovered from acid elution, cycle 4?
A: 7.6 pmol

Q: And the pmole of amino acids recovered from acid elution, cycle 5?
A: 0 pmol

Q: What about the pmole of amino acids recovered from acid elution, cycle 6 of the same binder?
A: 0 pmol

Q: And the pmole of amino acids recovered from acid elution, cycle 7?
A: 0.2 pmol

Q: What about the pmole of amino acids recovered from acid elution, cycle 8 of the same binder?
A: 0.6 pmol

Q: What about the pmole of amino acids recovered from acid elution, cycle 9 of the same binder?
A: 9.5 pmol

Q: What about the pmole of amino acids recovered from acid elution, cycle 10 of the same binder?
A: 0.3 pmol

— patent US20060287236A1
